From patent publication US20240385191A1 (NORDIC BIOSCIENCE A S, published 2024)
No end group written: not given here. *: point of attachment. Biotin = O=C1N[C@H]2[C@H](CS[C@H]2CCCCC(=O)*)N1; KLH = keyhole limpet hemocyanin

T1: non-sense KLH-conjugated peptide IRQCPDRTYG-GGC-KLH
T1 peptide: IRQCPDRTYGGGC(KLH)

T2: non-sense coater peptide Biotin-SHAHQRTGGN
T2 construct: Control coater on the streptavidin plate
T2 peptide: Biotin-SHAHQRTGGN

B1: monoclonal antibody targeting PRO-C20 (antibody produced by the best performing clone) (antibody, V domains shown)
VH: QIQLMQSGPELKKPGETVKISCKASGYPFTDYSMHWVKQAPGKGLKWMGWINTETGEPTYADGFKGRFAFSLETSASTAYLKINNLKNDDTATYFCARGPYWGQGTLVTVSA
VL: DVLLTQTPLSLPVSLGDQASISCRSSQSIVHNNGKIYLEWFLQKPGQSPKALIQKVSNRFSGVPDRFSGSGSGTDFTLKISRVEAEDLGVYYCFQGSHVPYTFGGGTKLEIKR
notes: Mouse hybridoma antibody (Balb/C mice), purified on protein G and HRP-labelled in the final ELISA; also called HRP-labelled monoclonal antibody; the monoclonal antibody
B2: standard peptide RHLEGRGEPGAVGQMGSPGQQGASTQGLWE (peptide)
peptide: RHLEGRGEPGAVGQMGSPGQQGASTQGLWE
notes: Synthetic 30-mer corresponding to the C-terminus of type XX collagen; also called 30 amino-acid variant

Legend:
[1] = molecular target: T1, non-sense KLH-conjugated peptide …; experiment: preliminary competitive ELISA for clone selection
[2] = molecular target: T2, non-sense coater peptide …; experiment: ELISA with the non-sense biotinylated peptide as coater on a streptavidin plate
Protocol: Several optimizations were made to the ELISA including the choice of assay buffer, incubation time and temperature as well as concentrations of antibody and peptides. […] After washing five times with washing buffer (25 mM Tris, 50 mM NaCl, pH 7.2), 20 μL/well of sample was added in duplicates followed by 100 μL/well of 50 ng/mL HRP-labelled monoclonal antibody in assay buffer and incubated for 1 hour at 20° C. with shaking at 300 RPM. After a second washing cycle, 100 μL/well of TMB was added and incubated for 15 minutes in darkness at 20° C. with shaking at 300 RPM. The reaction was stopped by adding 100 μL/well of 1% H₂SO₄. Absorbance was measured at 450 nm with 650 nm as reference. To generate a standard curve, 20 μL/well of 50 ng/ml standard peptide ([…] (SEQ ID NO: 6)), serially diluted two-fold, was added to appropriate wells and a four-parametric logistic regression model was used to fit a curve. […]
Antibody specificity was evaluated by the inhibition of signal by two-fold serial dilutions of the standard peptide ([…] (SEQ ID NO: 6)), elongated peptide ([…] (SEQ ID NO: 2)), truncated peptide ([…] (SEQ ID NO: 3)) as well as a non-sense standard peptide ([…] (SEQ ID NO: 8)) and a non-sense coater peptide (Biotin-[…] (SEQ ID NO: 9)).

[3] = molecular target: B1; experiment: competitive ELISA: standard peptide against coated Biotin-… for the HRP-labelled antibody
Protocol: After washing five times with washing buffer (25 mM Tris, 50 mM NaCl, pH 7.2), 20 μL/well of sample was added in duplicates followed by 100 μL/well of 50 ng/mL HRP-labelled monoclonal antibody in assay buffer and incubated for 1 hour at 20° C. with shaking at 300 RPM. After a second washing cycle, 100 μL/well of TMB was added and incubated for 15 minutes in darkness at 20° C. with shaking at 300 RPM. The reaction was stopped by adding 100 μL/well of 1% H₂SO₄. Absorbance was measured at 450 nm with 650 nm as reference. […]
Assay variation was tested by running ten independent run of the assay using ten quality control samples in double determinations. […] Intra-assay variation was calculated as the mean coefficient of variance (CV %) between the double determinations on each of the ten runs. Inter-assay variation was calculated as the overall CV % for all determinations on the ten runs. Lower-and upper-limit of the measurement range (LLMR and ULMR) were determined as the concentrations that denotes the limits of the linear range of the assay. Lower limit of detection was calculated as the mean interpolated concentration of 21 blank samples, only containing assay buffer, plus three standard deviations. Upper limit of detection was calculated as the mean interpolated concentration of standard peptide corresponding to the highest concentration of the standard curve minus three standard deviations.

| binding result [1] | binding result [2] | IC50 [3] [ng/mL] | Binder |
| --- | --- | --- | --- |
| no binding | no binding | – | B1 |
| – | – | 5.59 | B2 |
